One molecule from article PMC12532918 can be followed below.

This experiment concerns the target T1, CXCR4-CFP / CXCR4-YFP (human), P61073.
T1 chain: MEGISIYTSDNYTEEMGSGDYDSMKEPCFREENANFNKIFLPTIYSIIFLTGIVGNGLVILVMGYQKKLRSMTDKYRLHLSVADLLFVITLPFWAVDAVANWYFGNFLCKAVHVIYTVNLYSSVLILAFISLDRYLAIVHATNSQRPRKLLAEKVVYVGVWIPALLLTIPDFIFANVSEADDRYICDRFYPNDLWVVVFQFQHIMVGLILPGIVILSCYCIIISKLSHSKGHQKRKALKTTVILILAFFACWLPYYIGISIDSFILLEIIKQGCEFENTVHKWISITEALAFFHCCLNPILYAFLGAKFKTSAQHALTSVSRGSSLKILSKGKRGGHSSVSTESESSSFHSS
The experiment can be described thus: FRET or BRET; FLIM (CFP donor lifetime) in live HEK-293T cells transfected with CXCR4-YFP/CXCR4-CFP or 5HTR2B-YFP/CXCR4-CFP (15 µg : 9 µg); CXCR4-CFP alone as reference; untreated or ChOx (25 U/mL, 2 h, 37 °C); without or with CXCL12 (100 nM, 30 min). The conditions noted are these: remark: other sources report otherwise.

B1: CXCR4-CFP / CXCR4-YFP, P61073 1-352 (receptor)
chain: T1 chain
In turn, B1 showed a CFP donor lifetime (CFPτ), ChOx-treated cells (2.03 ns for CXCR4-CFP alone) of 1.82 ns; a CFP donor lifetime (CFPτ), ChOx-treated cells with CXCL12 of 1.75 ns; a CFP donor lifetime (CFPτ), untreated cells (2.03 ns for CXCR4-CFP alone) of 1.7 ns; a CFP donor lifetime (CFPτ), untreated cells with CXCL12 of 1.61 ns.
